What all share (settings): EMSA: 10 mM Tris-HCl pH 7.5, 1 mM EDTA, 50 mM NaCl, 5% glycerol, 30 min room temperature, 10 pmol DNA, 0-18 ug protein, 5% native PAGE at 4 °C; BLI: PBS pH …
In data set [1] the test system is SigB(Q225P) (Staphylococcus aureus (strain of the cloned gene not stated; XQW or Newman-SigB(Q225P)?)). Put plainly: BLI. In general terms: Biolayer interferometry detects binding as a change in optical thickness at a sensor tip.
In data set [2] the test system is SigB (Staphylococcus aureus (strain of the cloned gene not stated; Newman or XQ?)). Put plainly: BLI.
For data set [3], the system named is T1, SigB (Staphylococcus aureus (strain of the cloned gene not stated; Newman or XQ?)), ORF:92324cdd.
T1 sequence: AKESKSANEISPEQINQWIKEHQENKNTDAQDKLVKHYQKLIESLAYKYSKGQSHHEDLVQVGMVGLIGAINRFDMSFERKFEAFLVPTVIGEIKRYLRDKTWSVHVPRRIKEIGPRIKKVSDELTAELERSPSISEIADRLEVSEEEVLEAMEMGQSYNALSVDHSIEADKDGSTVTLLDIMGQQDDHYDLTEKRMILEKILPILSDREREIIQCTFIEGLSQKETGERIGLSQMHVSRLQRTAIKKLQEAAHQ
Put plainly: EMSA. (In general: In EMSA bound probe runs differently from free probe, usually more slowly.)

The subject of data set [4] is T2, SigB(Q225P) Q224P (Staphylococcus aureus (strain of the cloned gene not stated; XQW or Newman-SigB(Q225P)?)), ORF:92324cdd.
T2 sequence: T1 sequence with Q224P
As to the kind of experiment: EMSA.

The values below come from PMC5915575.

Where a chain is given by its changes, count along the chain named.

Take biotin-labeled nuc promoter (BLI): the Kd in data set [1] was determined as 273 nM; in data set [2], 113 nM.

As to “ACGCATAGGGACTTCGTGACCATTTACAGTCACAACTTTACTTAAGTTAATAAGTGTTAATTCATCAAACGACAGTTGTTCAACTGGTTGATGATGGTATTTCTTCATTCTTGTAAGTAAATTATTAATACGTAAAACGAGTTCCCTTGGACTAAATGGTTTTTTGACATAGTCATCTGCACCTAAAGTTAAGGCG (double strand) [saeR coding region fragment]”, the binding entry in data set [3] and in data set [4] was “no binding” in each case.

For orientation: Kd means the free concentration of one partner at which half of the binding sites on the other are occupied at equilibrium, for simple one-to-one binding. Read a low Kd as tighter binding.
